B1: HER2/neu peptide, position 704, 10 amino acids (peptide)
peptide: GAMPNQAQMR
notes: also called Her2/neu.704 (10-mer)
B2: HER2/neu peptide, position 832, 9 amino acids (peptide)
peptide: GMSYLEDVR
notes: also called Her2/neu.832 (9-mer)
B3: HER2/neu peptide, position 334, 10 amino acids (peptide)
peptide: CSKPCARVCY
B4: HER2/neu peptide, position 601, 10 amino acids (peptide)
peptide: PSGVKPDLSY
B5: HER2/neu peptide, position 40, 11 amino acids (peptide)
peptide: ETHLDMLRHLY
notes: also called Her2/neu.40
B6: HER2/neu peptide, position 401, 11 amino acids (peptide)
peptide: ETLEEITGYLY
notes: also called Her2/neu.401
B7: HER2/neu peptide, position 1102, 11 amino acids (peptide)
peptide: PTHDPSPLQRY
B8: HER2/neu peptide, position 1013, 11 amino acids (peptide)
peptide: DMGDLVDAEEY
B9: HER2/neu peptide, position 745, 9 amino acids (peptide)
peptide: NVKIPVAIK
notes: Synthetic A3 supermotif peptide
B10: HER2/neu peptide, position 24, 9 amino acids (peptide)
peptide: QVCTGTDMK
notes: as for B9
B11: HER2/neu peptide, position 713, 10 amino acids (peptide)
peptide: RILKETELRK
notes: as for B9
B12: HER2/neu peptide, position 840, 10 amino acids (peptide)
peptide: RLVHRDLAAR
notes: as for B9
B13: HER2/neu peptide, position 423, 10 amino acids (peptide)
peptide: SVFQNLQVIR
notes: as for B9
B14: HER2/neu peptide, position 948, 10 amino acids (peptide)
peptide: TIDVYMIMVK
notes: as for B9
B15: Her2/neu.166 (10 amino acids) (peptide)
peptide: TILWKDIFHK
notes: Synthetic A3 supermotif peptide; also called HER2/neu peptide, position 166, 10 amino acids
B16: HER2/neu peptide, position 851, 10 amino acids (peptide)
peptide: VLVKSPNHVK
notes: as for B9
B17: HER2/neu peptide, position 1132, 8 amino acids (peptide)
peptide: TCSPQPEY
notes: also called Her2/neu.1132
B18: HER2/neu peptide, position 1103, 10 amino acids (peptide)
peptide: THDPSPLQRY
notes: also called Her2/neu.1103
B19: HER2/neu peptide, position 402, 8 amino acids (peptide)
peptide: TLEEITGY
notes: also called Her2/neu.402 (8-mer)
B20: HER2/neu peptide, position 402, 10 amino acids (peptide)
peptide: TLEEITGYLY
notes: also called Her2/neu.402
B21: HER2/neu peptide, position 399, 11 amino acids (peptide)
peptide: VFETLEEITGY
notes: also called Her2/neu.399
B22: HER2/neu peptide, position 296, 8 amino acids (peptide)
peptide: VTACPYNY
notes: also called Her2/neu.296

These binders were tested against HLA-A*1101 (purified HLA class I molecule) (human) (assay: inhibition of 125I probe peptide binding to purified HLA; ratio to standard peptide).
For B1, the relative binding ratio was 0.0041 ratio (IC50 standard / IC50 test). For B2, the relative binding ratio was 0.0002 ratio (IC50 standard / IC50 test).

Each binder was assayed against T1, HLA-A*0101 (human) (assay: competition with 125I-labelled probe peptide for purified HLA-A*0101, gel filtration).
T1 construct: also called HLA-A1
For B3, the relative binding ratio was 0.0016 ratio (IC50 of standard peptide / IC50 of test peptide). With B4 the relative binding ratio was 0.001 ratio (IC50 of standard peptide / IC50 of test peptide). In the case of B5, the relative binding ratio is reported as 0.28 ratio (IC50 of standard peptide / IC50 of test peptide). In the case of B6, the relative binding ratio is reported as 0.44 ratio (IC50 of standard peptide / IC50 of test peptide). For B7, the relative binding ratio was 0.016 ratio (IC50 of standard peptide / IC50 of test peptide). B8 was tested, and the relative binding ratio was 0.0027 ratio (IC50 of standard peptide / IC50 of test peptide).

Each binder was assayed against HLA-A*0301 (human) (assay: inhibition of 125I-labelled standard peptide binding to purified HLA, gel filtration).
In the case of B9, the relative binding ratio is reported as 0.0058 ratio (IC50 of standard peptide / IC50 of test peptide). For B10, the relative binding ratio was 0.0007 ratio (IC50 of standard peptide / IC50 of test peptide). In the case of B11, the relative binding ratio is reported as 0.057 ratio (IC50 of standard peptide / IC50 of test peptide). B12 was tested, and the relative binding ratio was 0.18 ratio (IC50 of standard peptide / IC50 of test peptide). In the case of B13, the relative binding ratio is reported as 0.017 ratio (IC50 of standard peptide / IC50 of test peptide). In the case of B14, the relative binding ratio is reported as 0.013 ratio (IC50 of standard peptide / IC50 of test peptide). In the case of B15, the relative binding ratio is reported as 0.043 ratio (IC50 of standard peptide / IC50 of test peptide). With B16 the relative binding ratio was 0.082 ratio (IC50 of standard peptide / IC50 of test peptide).

Each binder was assayed against HLA-A*1101 (human) in the same assay as above.
In the case of B9, the relative binding ratio is reported as 0.0007 ratio (IC50 of standard peptide / IC50 of test peptide). With B10 the relative binding ratio was 0.052 ratio (IC50 of standard peptide / IC50 of test peptide). In the case of B11, the relative binding ratio is reported as 0.11 ratio (IC50 of standard peptide / IC50 of test peptide). B12 was tested, and the relative binding ratio was 0.0001 ratio (IC50 of standard peptide / IC50 of test peptide). With B13 the relative binding ratio was 0.075 ratio (IC50 of standard peptide / IC50 of test peptide). For B14, the relative binding ratio was 0.12 ratio (IC50 of standard peptide / IC50 of test peptide). With B15 the relative binding ratio was 3.6 ratio (IC50 of standard peptide / IC50 of test peptide). With B16 the relative binding ratio was 0.0072 ratio (IC50 of standard peptide / IC50 of test peptide).

Each binder was assayed against HLA-A*3101 (human) in the same assay as above.
B9 was tested, and the relative binding ratio was 0.0015 ratio (IC50 of standard peptide / IC50 of test peptide). For B10, the relative binding ratio was 0.0002 ratio (IC50 of standard peptide / IC50 of test peptide). For B11, the relative binding ratio was 0.0055 ratio (IC50 of standard peptide / IC50 of test peptide). B12 was tested, and the relative binding ratio was 0.95 ratio (IC50 of standard peptide / IC50 of test peptide). With B13 the relative binding ratio was 0.034 ratio (IC50 of standard peptide / IC50 of test peptide). With B14 the relative binding ratio was 0.0018 ratio (IC50 of standard peptide / IC50 of test peptide). B15 was tested, and the relative binding ratio was 0.037 ratio (IC50 of standard peptide / IC50 of test peptide). With B16 the relative binding ratio was 0.0052 ratio (IC50 of standard peptide / IC50 of test peptide).

What follows are binders tested against HLA-A*3301 (human) in the same assay as above.
For B9, the relative binding ratio was 0.082 ratio (IC50 of standard peptide / IC50 of test peptide). B10 was tested, and the relative binding ratio was 0.0006 ratio (IC50 of standard peptide / IC50 of test peptide). For B11, the relative binding ratio was 0.0013 ratio (IC50 of standard peptide / IC50 of test peptide). With B12 the relative binding ratio was 0.0021 ratio (IC50 of standard peptide / IC50 of test peptide). With B13 the relative binding ratio was 0.039 ratio (IC50 of standard peptide / IC50 of test peptide). For B14, the relative binding ratio was 0.012 ratio (IC50 of standard peptide / IC50 of test peptide). In the case of B15, the relative binding ratio is reported as 0.042 ratio (IC50 of standard peptide / IC50 of test peptide). In the case of B16, the relative binding ratio is reported as 0.0032 ratio (IC50 of standard peptide / IC50 of test peptide).

Each binder was assayed against HLA-A*6801 (human) in the same assay as above.
In the case of B9, the relative binding ratio is reported as 0.12 ratio (IC50 of standard peptide / IC50 of test peptide). In the case of B10, the relative binding ratio is reported as 0.011 ratio (IC50 of standard peptide / IC50 of test peptide). With B11 the relative binding ratio was 0.0002 ratio (IC50 of standard peptide / IC50 of test peptide). With B12 the relative binding ratio was 0.0036 ratio (IC50 of standard peptide / IC50 of test peptide). With B13 the relative binding ratio was 0.25 ratio (IC50 of standard peptide / IC50 of test peptide). B14 was tested, and the relative binding ratio was 0.025 ratio (IC50 of standard peptide / IC50 of test peptide). For B15, the relative binding ratio was 0.04 ratio (IC50 of standard peptide / IC50 of test peptide). For B16, the relative binding ratio was 0.0005 ratio (IC50 of standard peptide / IC50 of test peptide).

What follows are binders tested against T2, HLA-A*0301 (purified HLA class I molecule) (human) (assay: inhibition of 125I probe peptide binding to purified HLA; ratio to standard peptide; minus sign not explained).
T2 construct: also called A3
With B1 the relative binding ratio was -0.0002 ratio (IC50 standard / IC50 test). With B2 the relative binding ratio was -0.0002 ratio (IC50 standard / IC50 test).

These binders were tested against T3, HLA-A*0101 (human) (assay: competition with a 125I-labelled probe peptide for purified HLA-A*0101, gel filtration; ratio against the A*0101 standard peptide 944.02 [..] (25 nM)).
T3 construct: Purified HLA molecule, 5 to 500 nM in the assay; also called HLA-A1
For B17, the “relative binding ratio (IC50 of standard peptide / IC50 of test peptide)” value was -0.0021 ratio. With B18 the “relative binding ratio (IC50 of standard peptide / IC50 of test peptide)” value was 0.0015 ratio. With B19 the “relative binding ratio (IC50 of standard peptide / IC50 of test peptide)” value was -0.0021 ratio. In the case of B20, the “relative binding ratio (IC50 of standard peptide / IC50 of test peptide)” value is reported as 1.1 ratio. With B21 the “relative binding ratio (IC50 of standard peptide / IC50 of test peptide)” value was 0.0045 ratio. In the case of B22, the “relative binding ratio (IC50 of standard peptide / IC50 of test peptide)” value is reported as 0.1 ratio.
